The record followed here is article PMC8192788, “Macropinocytosis requires Gal-3 in a subset of patient-derived glioblastoma stem cells” (Communications Biology, 2021).

In the assay the target is T1, purified human Gal-3 (Biolegend) (human, UniProt P17931 1-250).
T1 construct: purified human Galectin-3 bought from Biolegend; No catalogue number printed; source: bought: Biolegend
In words: cell-free binding assay (coated plate, antibody detection by fluorescence); 96-well plates coated with purified human Gal-3 (0.5 µg in 100 µl, 4 °C overnight), blocked with 50 mg/mL BSA; recombinant human RAB10 0.25 to 0.5 µg/well, 4 h at 30 °C; bound RAB10 detected with rabbit anti-RAB10 and AF488 secondary antibody. Particulars: both partners purified.

T1 sequence (P17931 whole entry): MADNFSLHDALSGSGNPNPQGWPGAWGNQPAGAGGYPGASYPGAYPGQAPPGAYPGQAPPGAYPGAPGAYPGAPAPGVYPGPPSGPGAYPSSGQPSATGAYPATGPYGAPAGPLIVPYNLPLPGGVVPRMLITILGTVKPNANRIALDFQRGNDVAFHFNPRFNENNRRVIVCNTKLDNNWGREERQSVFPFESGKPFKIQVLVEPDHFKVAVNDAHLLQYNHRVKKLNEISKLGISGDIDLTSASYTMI

B1: recombinant human RAB10 (Prospec PRO-1361) (natural protein, UniProt P61026 1-200, looked up)
chain: MAKKTYDLLFKLLLIGDSGVGKTCVLFRFSDDAFNTTFISTIGIDFKIKTVELQGKKIKLQIWDTAGQERFHTITTSYYRGAMGIMLVYDITNGKSFENISKWLRNIDEHANEDVERMLLGNKCDMDDKRVVPKGKGEQIAREHGIRFFETSAKANINIEKAFLTLAEDILRKTPVKEPNSENVDISSGGGVTGWKSKCC
notes: recombinant human RAB10 bought from Prospec; The vendor's data sheet for PRO-1361 should give limits and any His tag; source: bought: Prospec
B1: the binding result is reported as “binds”.
